Measured values: PMC9324849, “A Light‐Activatable Photocaged Variant of the Ultra‐High Affinity ALFA‐Tag Nanobody” (Chembiochem, 2022)

What was measured:
[1] = molecular target: sfGFP-ALFA-tag (3); assay: MST; 10 nM sfGFP-ALFA-tag (3) with a dilution series of photobody 1, before light activation
[2] = molecular target: ALFA-Pb displayed on E. coli cells (AIDA autodisplay system), photocaged, not irradiated; assay: flow cytometry on cells; E. coli cells displaying the nanobody (AIDA autodisplay system), not irradiated, mixed with a dilution series of fluorescent sfGFP-ALFA-tag (3)
[3] = molecular target: T1, sfGFP-ALFA-tag (3) (synthetic construct …); assay: flow cytometry on cells; E. coli cells displaying the ALFA-Pb irradiated in 100 uL PBS (OD600=1; 365 nm, 530 mW; 5 cm distance), then different concentrations of sfGFP-ALFA-tag (3) added; conditions: one partner purified
T1 construct: ALFA-tag, laboratory-designed amphiphilic peptide of 13 amino acids; sfGFP is the fluorescent marker read in MST and flow cytometry; also called protein 3; fusion construct sfGFP-ALFA-tag
T1 chain: SRLEEELRRRLTE

[4] = molecular target: T1, sfGFP-ALFA-tag (3); assay: flow cytometry on cells; E. coli cells displaying the nanobody (AIDA autodisplay system), not irradiated, mixed with a dilution series of fluorescent sfGFP-ALFA-tag (3); conditions: one partner purified

In the case of “ALFA-tag photobody (ALFA-Pb) 1, Tyr42ONBY, photocaged (VHH)”, the Kd [1] is reported as 7900 nM.

Work on sfGFP-ALFA-tag (3) yielded a Kd [2] of 3200 nM.

B1: decaged ALFA-Pb displayed on E. coli cells (after irradiation at 365 nm) (VHH)
VHH: EVQLQESGGGLVQPGGSLRLSCTASGVTISALNAMAMGWYRQAPGERRVMVAAVSERGNAMYRESVQGRFTVTRDFTNKMVSLQMDNLKPEDTAVYYCHVLEDRVDSFHDYWGQGTQVTVSS
notes: Made from m2 by UV light
In the case of B1, the Kd [3] is reported as 0.183 ± 0.006 nM.

B2: ALFA-Nb (wild type) displayed on E. coli cells, unirradiated control (VHH)
VHH: B1 VHH
notes: ALFA-tag nanobody (ALFA-Nb), wild type; also called unirradiated ALFA-Nb control; ALFA-tag nanobody
Work on B2 yielded a Kd [4] of 0.346 ± 0.005 nM.
